Assay results taken from the supplement of paper PMC12042874.
± gives the uncertainty stated by the source.

Assay: amyloid nucleation score (Sup35N fusion, yeast selection) (log enrichment); library NNK3; higher = more nucleation; inactive = no reads after selection
Procedure, shortened: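 Sup35N fusions to peptides of 20 random codons were expressed in psi-negative yeast, induced 24 hours with 100 μM copper sulfate, and grown 7 days at 30°C on medium lacking adenine and uracil. Input and output plasmid inserts were sequenced by Illumina. The nucleation score is the DiMSum log enrichment of output over input reads, centred on the mode score of non-aggregating sequences. Sequences with under 100 input reads were excluded.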

Substance	amyloid nucleation score
CGQFVEISKYG	inactive
CGSRLYRCETAMMVLRIRSG	inactive
CGTTVGFLMLYLSCIRWL	inactive
CGYEVIGNIFGM	inactive
CHAIASVVSEYNGPLVVTVI	inactive
CIAMKMWKNIRRWWSGRVAG	inactive
CIGFGCLLIVHLPIYACPWC	inactive
CIHTPDRCKVCNGITFDGRC	inactive
CIQLVVT	inactive
CIQSMRH	inactive
CIRICNISFFL	2.71 ± 0.075
CISLSRL	inactive
CISTVIEKMLVIYEKNRFQH	0.529 ± 0.46
CIVMG	inactive
CKHYVGLYKLTVWRFCGKNT	inactive
CKPDLMA	inactive
CLACFI	inactive
CLALSGIIIFELKAYLGSWC	1.27 ± 0.12
CLDPRGRNRAGPAVIGGPSV	inactive
CLFSGEGLARKCYSDNS	inactive
CLFSLLYPCGWINYSNSNMS	0.437 ± 0.17
CLGNENVELVSTNVVYRYIS	inactive
CLIFDLSRKKYWVKRDRKAW	1.91 ± 0.062

Substance	amyloid nucleation score
CLIYTTVFHSAG	0.708 ± 0.13
CLKFQSVY	inactive
CLKSA	-0.912 ± 0.93
CLLNGDLHVEGWTLV	inactive
CLPPKS	inactive
CLRVLWLSQLTVSCDF	-0.354 ± 1.8
CLSTFLGRSEKPL	inactive
CLTLMALAKGFGVWGG	-0.176 ± 0.92
CLTLYRHQ	0.313 ± 0.54
CLWKG	inactive
CLYFY	1.93 ± 0.1
CLYPGRSWVTGAGITVWSLV	inactive
CMLAQRRVTPRRYRLVSSTI	inactive
CMLSDVIFYIVDDIRMFVGV	inactive
CMNWCVSRMVNTIVIWCMAY	inactive
CNHVSLTMILVRVLNMFF	0.968 ± 0.23
CNNRVVWLKHGSLSREDGVQ	inactive
CNSETRAFYYLALWVLFFFN	inactive
CNSVRLGFQWAKYVLWRHRG	inactive
CNWINLNIRSVRIYHPYSRF	1.54 ± 0.072
CNYPKFHWLGRSVIKFIDFL	inactive
CNYWCDVGLYGSKAFERSAT	inactive
CPGDPVESRCFPVLVNLRRG	inactive

Substance	amyloid nucleation score
CPNMPSSTGTKPSNVMVSFS	inactive
CPTIPMVGTF	inactive
CPVLGCMSTGEYHCFLTQTY	inactive
CQDHVKNITAIPHSSGMYMS	inactive
CQHGGCALQHHTYRCEVGAG	inactive
CQPSF	inactive
CQSKLKLSMLCRWFRCTIGK	inactive
CQSPDALVRWGR	-0.087 ± 0.93
CQSVLCAKFLVSERH	inactive
CRCGSKNTTVRTLLNRGYSE	inactive
CRFWGFDSSINEVGLMQNHL	inactive
CRKLYNISFLVLLTFFSHLF	inactive
CRKTESAMRWK	inactive
CRLYEDIGISYMVATNQLEY	inactive
CRMAKRLAVRTSLRRMFSES	inactive
CRQVRFALLNFLAAG	inactive
CRQWCDWCTGSYPGYCFQC	inactive
CRRIYPFRP	-0.064 ± 0.66
CRSLSLTSGIKF	inactive
CRWNVNNFPHLFITKMMFRY	inactive
CSCQMSRFMRTLVCVFT	inactive
CSEGLYGVSTVICCIISSVN	2.2 ± 0.077
CSEQEACISK	inactive

Substance	amyloid nucleation score
CSFRIMGDQMIGKTCCRFGH	inactive
CSFTARFLHTMSPKKFKLGN	inactive
CSGDD	inactive
CSGLCGFSQ	inactive
CSGYFDCIDTLKCNSS	inactive
CSGYVNGLVIQGKCAKDVVW	inactive
CSLTRFRWGYRTFEDNAPFH	1.57 ± 0.075
CSLWSMQGYLHEWRICCWRH	inactive
CSMFVAIIPRWSFEWPLRW	inactive
CSMSAIMYYSARFDV	inactive
CSPSFDVYPMV	inactive
CSRYFRWYHVLAYCSVPNRM	inactive
CSTFNFRGNTIHLNLCWEVI	0.424 ± 0.71
CSTIVWWEIAYKL	inactive
CTLGHCMKLSMSSFPAVGKV	inactive
CTLMIFGCN	inactive
CTVPMPDSVNVSAE	inactive
CVAECPLA	inactive
CVASGCTVKACFYSMREDRY	1.53 ± 0.092
CVATNYSYCSIFLHRA	2.01 ± 0.079
CVICSELLSSDCIIGDHRLR	1.7 ± 0.1
CVILYLTGKSFIVLSIVVAE	inactive
CVIPRQIYWWCYRSTGRLIL	inactive

Substance	amyloid nucleation score
CVLRAFATVKHFTSGLCSCG	inactive
CVNGTKEGTVRGSRARGRSF	inactive
CVSMKRN	2.07 ± 0.067
CVSNISSFGKLEFTYVIEVW	inactive
CVSYAISNGLRMEFSKENQY	0.415 ± 0.14
CVTINVIFDNVVY	2.3 ± 0.061
CVVIFICPQKG	0.811 ± 0.26
CVVPHPLSLPSD	inactive
CVWTSVLDVRYLYWCNVDVR	inactive
CWKQGLNRYLWW	0.752 ± 0.13
CWTMVASVTCYIVLLARWK	inactive
CYDTFGLFYCFLVWVWDLIV	inactive
CYEGR	inactive
CYELLESS	inactive
CYHAFRCSGLARACVENINW	inactive
CYLFVLL	inactive
CYLSSTGVVYAGYVYI	inactive
CYLVLFGAM	inactive
CYNAKCHFIGYDVAGNSGVW	inactive
CYNQRGCTIGILQFLPRPVW	inactive
CYRWL	inactive
DAAQCRSDNYALFELNSAHC	inactive
DADYLT	inactive

Substance	amyloid nucleation score
DAETPLHSFGMQLLGRASMR	inactive
DAKKVCFGIKEDCWR	inactive
DALVYVLGSCMWIGASSTSA	-0.354 ± 1.1
DAPVVTVRAGNAGNHSMIPW	inactive
DCCGLVAYNLVFRICGACLG	inactive
DCESQQLSSSMWDTPQRWLT	inactive
DCFDFIEETGTNKAFRVWGI	0.283 ± 0.24
DCGSSCKSYPGKVVDNEMDE	inactive
DCGVVCSRNRNAEEEMLDSV	inactive
DCWHLRQLWGVMSCQ	0.48 ± 0.42
DDDEVASCLPYWRCAALKSG	inactive
DDFVG	inactive
DDRDSNSVTLDNSWSYSITV	inactive
DDRLCLGASENVWGFTVVRR	inactive
DECVYLFKNSYSVIILMFFK	inactive
DECYNVLRSVVYGMTSSTGW	inactive
DEFINLSFA	inactive
DEIACPYSAWLRMSMPEARS	inactive
DEMPRVSMRVNNMPGCDNDE	inactive
DFGMVLSNRFKTMKDCSYFC	0.785 ± 0.23
DFIDLLLSSDEIMKS	inactive
DFRHSMEASWKIWIRAGTRE	inactive
DFYIGTGLISKVRLGHRCSC	-0.305 ± 0.44

Substance	amyloid nucleation score
DFYIIDSLIRMCMRICEFVL	inactive
DGARLCSAAMLAGQGLDEDG	inactive
DGAVFRFNMGHYKYSLVEVM	inactive
DGCGFIVTFVSAGVRSWLGI	0.712 ± 0.29
DGFLKLEFAFQCFTRLCLAF	inactive
DGPTRLNLFNSLFVSLKRMY	1.58 ± 0.12
DGRRSMATCWIHSNCPWRAS	inactive
DHAIM	1.46 ± 0.14
DHCGNFEDRWICVINNMRVS	inactive
DHCRNKQCVPTWDAYLEQ	-0.339 ± 0.52
DHVGCATNRSDVDVTVFV	inactive
DHWLLQYERRCKLGGFGY	inactive
DICHWVEYFV	inactive
DICRFNWMFHF	1.3 ± 0.11
DIFCCWTDISDLF	inactive
DIFGSGYGYRGLSGRNYINM	inactive
DIPSVGQKRCSHGDRYNSAK	inactive
DIRCGFLHKQGPLTMRATEQ	inactive
DIRSGTLC	inactive
DISIPVLKRSFTCSMAYHC	inactive
DISSFGHFSMSFFNRIIKGA	inactive
DISSKY	inactive
DIVSLVNAFMISTIYTVTRK	inactive
